Measured values reported in US20070081975A1.

Target: recombinant human IL-18 (human) (UniProt Q14116)
Test: cell-based or functional assay

Chain of recombinant human IL-18 (human) (Q14116 37-193 limits assumed): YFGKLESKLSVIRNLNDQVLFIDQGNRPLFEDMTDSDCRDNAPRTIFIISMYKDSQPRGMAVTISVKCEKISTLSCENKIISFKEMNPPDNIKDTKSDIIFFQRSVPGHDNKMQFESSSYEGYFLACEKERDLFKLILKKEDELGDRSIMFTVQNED

Row | IFN-γ (ng/ml); bioassay with human IL-18 (20 ng/ml), LPS (2 µg/ml) and murine splenocytes (control 7.5) [ng/mL] | Substance
1 | 0 | His6-tagged IL-18BPa transiently expressed in COS7 cells (IL-18BP-His6) (from UniProt O95998 31-194)
2 | 0 | PNGase-treated IL-18BP-His6 (deglycosylated IL-18BPa-His6) (from UniProt O95998 31-194)
